Test: soluble on expression in E. coli; label from the status in PepcDB or PDB records
With “MKPRGICFFDMDGTLLNSESKVLDTSLQALDKLRENNVIPVIATGRTLIEISHQMKITGIESAVMMNGQMAIFEGEKVYEDVIDADLLDRLTEEAKSQNVEVCYYNDKRIGATASTPVVKAHYDFLGEPMPKVRPNMYKEETINMALLLLETGDDYFPERFPELQFVRNTPFSNDVLRKGGSKAVGISKLLEVMGYQDVPTYAFGDGMNDLEMFGAVDYAIAMENAVPLLKEKADFVTKDNNSDGIMLGLKQFDLI” the “soluble on expression in E. coli” value was “not soluble”.
For “MSLSDFDYIQKNTPPEFPEKFKTALLPENIKKNRYSDVLANDDTRVKLNNNGYINANYIFQGRMIASQAPTIETIPDFLQMIIEQQVPIVIMLTKCKEKTRIKATPYWGYKSEGGKKVFGNYTVNTIDTLYDDVEEDKFMEDIQIRYLQIIYEDGVYSFIQIHYMGWPDFGVPLNPKDALDIVYIQYIIGTTSKFSNRNLVCVHCSAGVGRTGVYCLLSRIVEMVTYEILEKSETYSKQRSTSSSSKVREVEDRIEEILLSHPVISYEDCEVILPELVLSIRNERSKMVQTKEQYDFICETVNCFYEDALDSINQYYEVIDALTEGHHHHHH”, the “soluble on expression in E. coli” value was “not soluble”.
With “MDTTYGPPAPALSGLTLGIREYSLFQAVLLVIDRLRDAHPHLSEDDLYDQLEFQANPSLGFPSSDVSRVEFFHEHGQMRARMQFNLIGLVGSGSPLPAFYGEQALGDSEDGNPTRNFLDLFHHRLQRLMLPIWKKYRYRASFESGALDPFSAQLFALIGLGGEEIRRAQELNWKRLLPYLGLLSLRAHSAALIEAVLRYYFKHAELTIEQCIERRVEILDEQRNRLGSANSMLGEDLVLGDHVRDRSGKFRIHIRELDWQRFHEFLPIGFGYQPLCALVRFTLRDPLDYDIRLVLRQEEIRELRIGEQNACRLGWTSWLGREKADGVVTLGSKIH” the “soluble on expression in E. coli” value was “not soluble”.
With “MHAILNTFKSGVGDCVFMRLIKDDATFSIMIDCGKYTPEINLFIKEKLHKHIDLLIVTHIDDDHINGVCEMLIAMPEITIGKIFYNCYQLLSGEKIAALTKIVSSDIEILTQNLPKQRTDTNGKINMEHASVLASILLKNPQWNSAWEKTFYIENSLEPYPLGDGLGQLVFISPTSSELKTLDMNFAREYLRLTRHEVINAPFEGRETLFELVSRLVSMKIREREYVKKQKIAGLIDKYSVERWKKAKDFEPSGITDENKGSIAFIWEYKDTKVLFMGDAEPDIVKTAIVNKYGKVDNMKAIKVSHHGSKHSTSKELMEVIDSFDYFITGGSVGDKPSMETLVKIVDRGDNKVRTIHYNYDRNILMKDMASDESVELRQKYNFQIDTNNELEFEY” the “soluble on expression in E. coli” value was “not soluble”.
With “MKDQNGVASTDDSVLPSWSNPDVGQFIVSTYNEYEYKRIPFRELEFGCLLCRMRTFNHEGMKKHLRDHVVHKKSSCEHEKPGKTGIHHQVDKAGNGVMPENGQLVQCYIEIKLADCYTSWSNYESQNPIIFKIGFGEVIPGLDIGIPKMKVGEIATFHVSGKYGYGRAGFRGLIPRNASLTCKVRLFNCSWDSYAKIGVDRQILVQGDNVTKSKNGQTVTCHYVLILVDGTKIDSSRDRETPFKFKIGKGEVIKGWDQGVAQMSVKEKSKLTIAPAFGFEKGKLPAGIPA” the “soluble on expression in E. coli” value was “not soluble”.
In the case of “MASTIAFPAMVKELRLSKNLTMEQLAEEVGKTKSTISKWEKGTRSPKIYEIEEIAKFFGVEPKKMMFGDNPTPTAPQVELIPSTLQKINSTSSQLEHKRQLNVLDYAETQLEQQNTVEEPQATYYTYNYYDHAASAGTGQYLNDVQVETIELPVDYDADFVIPVYGDSMEPKYHSGDYVFVKLSVELTDGDIGVFEYYGDAYIKQLLINDKGAFLHSLNQCGDYPDIPIDRDSDFRIIGEVMGSYRER”, the “soluble on expression in E. coli” value is reported as “not soluble”.
For “MPKATFYTHVAQVPIFTCRLIARAIRDGGRILVWSDSFGQLQELDKMLWQYEAESFIPHEIWETEEAMPSEPSVLLACGGNLPRIPEGMTVLNLSDGFWNTAPVLPARVLEIVGNSLEELADARERFTAYRRSGFAIEHHGMEGKA”, the “soluble on expression in E. coli” value was “not soluble”.
With “GAADHVKGDGKLTSKKISVADYNEIKVDGVIDFNYEQSDDPSTVEVTVDQNLHPYVNIEVKDRVLTIAFKGAKVDHFTKFIVKTNSKWLAAAKVSGNANFMVNSPLTGDETVIKANANSLVQLKETVTVGKLDLNVSGSANMVVNHLEADKIECDIDGSGSITIKKGNAKEGDYSIVSSGDIHAFGLAVPQLSCKVTGNGLAEVHATDNLKANVVGKGNIRYKGPTAVQQRIIGKGTVEEVKE” the “soluble on expression in E. coli” value was “soluble”.
For “GAMGKVGVGKKAEAVATVVAAVDQARVREPREPGLPEDSYAQQTTLEYGYKEH”, the “soluble on expression in E. coli” value was “soluble”.
In the case of “MTKTSKASGLSWFFCDLDGTLLRYQNNQHLIEPTTKRAVAQLVESGANFVVATGRKPSDVRNIYKELGIEQASPYLIANNGAVVWDLKRNSYLNKQTLSLSDFDLIDHINQTLNQLNHEYGCILYGLNDQVYFYHIHAPDSQAFKQYFAFYEGEFVQNQYLEIDGLKTEYNLVKAIWFFKEVHQQKAVIAQHFTNQERLVITSAHSFELVPLNVSKGHAINLIKQQVKITDNQIMVLGDSYNDLPMFQHGVVKVTNHLAPDNLKQLATRVYELPASLFVGQALNDYFKFD”, the “soluble on expression in E. coli” value is reported as “not soluble”.
In the case of “MGSDKIHHHHHHMIKLAQPQAQRLVLLLAGAVRSVLLYPGSHPAVVQQFAHLGSHVTELLRAYPEVRIGIIDGVLFCENHLFFTPTAAEEELAALLTNRHVEAVAFRAGLTPLELERFVELLTRRELLGEQLVAEVKRAGIAAISVELCGSGATEDHSQGDDEYDPGTTYREALDVVTGLFSEVEKGRIPSSDKLRGVVDRMATMIMQDRATLLGLAMIKDYDNYTFCHSVNVGILSMSLGAAAGLQRDELGELGMAGFLHDVGKTRVEITILNKPGRLSSDEYERMKMHSEEGARIVGEMPGVGERIARAVLGHHIRFDRAGYPESARALAFDRFCDIIAVADCYDAITTLRVYKSPLNPKDALLKLRSLAGSHLDSGLVQAFTEMMGRYPVGTLVRLDTNEVAVVFRPDPNGGERPVVKVVADPAGRLLDPAHMKNLARETGTRIVSVVDPLMTAIDVNRYLG”, the “soluble on expression in E. coli” value is reported as “not soluble”.
With “MFEKVKVSTCFHVTLLKDYIVFYVSNNLNFASRWPRRRRGQRLLPTALRAMMLNPTEALLAEVSKARTSGARITVEEFIPIYKKVEAACGRSTTLKEFQTLLSHFDREGNGQIMLMELKSMLQNGGEKMTNQEARALKPATGLDTIYRNLNFNHKFTLDHSAIGFLRTNQFFDVQMIPVSRFFTVQDPSNALLSYTQKGIDFFEKLGQFSKEKAAIEEEYSTKLRSLAKKYAKKSEEDDEILKSVSYTSSFNSFLQQLDQIATRHQTSAEHIRGGVVSYVASKTCQMRSSRKNAINDLKTINDKLEDQINEMCKSGKCYLKSFKDAENSYQKFYKADKNLEISRLELEKARALANARNEACELAKQDYSALVRKTNAEQKRYHVELLPVIFARLKAVDKECIADMRQVLQKIVSFDDSLADSTEECRKIMQREVGKIDAEGDAQLVLKSVEATIEQPAPFEIEDLGDPKNCDSRTNDSADGSGGKLLKSSPSKNRIIRNFLGILKEKEADEKPEASNNDQLMYTDKSKPAHVRLSCLRSKIRDMEKQLEQAIQGREGITRLQQAYYTNPQHGNPSACTEPLISYAKKIEKLKMDIHNLKEFYAMLEMSVEEGQERSFGGRDTPDTTRSMSGSSTNQSSSKTIEDVLSGEAGNSSSADDSSKNILRQLFTTPKRLISSPKTSKSSTPTPLRRRAEISSPKILRSSFSGAIRKSLSTPDSVKVETAVTVTALFEFAKSSAETMSIEQGEILLVLEHDHGDGWTRTKKKHNEESGFVPTSYLQFPQ” the “soluble on expression in E. coli” value was “not soluble”.
In the case of “MGSDKIHHHHHHMSTEPLASRMRPKNIDEIISQQHLVGPKGIIRRMVDTKKLTSMIFYGPPGIGKTSIAKAISGSTQYKFRQLNAVTNTKKDMQLVVEEAKMSGQVILLLDEIHRLDKAKQDFLLPHLENGKIVLIGATTSNPYHAINPAIRSRAQIFELYPLNDEDVRQALTRAIEDDENGLKTYQPKIDEDAMTYFSTQSQGDVRSALNALELAVLSADNDKDGYRHVTLQDAKDCLQKGAFVSDKDGDMHYDVMSAFQKSIRGSDVNAALHYLARLIEAGDLPTIVRRLLVISYEDIGLASPNAGQRTLAAIESAERLGLPEARIPLSQAVIELCLSPKSNSAMSAIDSALSDIRNGHVGQIPNHLKDGHYQGAKDLGRSIGYKYPHQYVNGYVSQQYLPDKLKNKIYYEPKTTSKSEQQLKEIYNNLLKQRP”, the “soluble on expression in E. coli” value is reported as “not soluble”.
In the case of “MGSDKIHHHHHHMKTVRIETFGCKVNQYESEYMAEQLEKAGYVVLPDGNAAYYIVNSCAVTKEVEKKVKRLIKSIRNRNKNAKIILTGCFAQLSPDEAKNLPVDMVLGIDEKKHIVDHINSLNGKQQVVVSEPGRPVYEKVKGSFEDRTRSYIKVEDGCDNTCTYCAIRLARGTRIRSKPLEIFKEEFAEMVMKGYKEIVITGVNLGKYGKDMGSSLAELLKVIEKVPGDYRVRLSSINVEDVNDEIVKAFKRNPRLCPHLHISVQSGSDDVLKRMGRKYKISDFMRVVDKLRSIDPDFSITTDIIVGFPGETDADFQRTLELVEKVEFSRVHIFRFSPRPGTPASRMEGGVPESKKKERLDVLKEKAKDVSIRYRKRIIGKERKVLAEWYVMKGVLSGYDEYYVKHEFVGNRVGEFHSVRVKSLSEEGVISCRADMVEGKVPARG”, the “soluble on expression in E. coli” value is reported as “not soluble”.
In the case of “MSLGSNKTIIINLNNLEHNLNLIKNKIGEKEIVATLKGDAYGHGLINIFKFLKSKNINYFGLSNIEDAKTLKKIDKNIKILMYIKVDKKEIKNLIKFELVPFVSDFEYLFLIEKECALQKNKIKVHLKIDIGMNRYGIKIDDALEIATYIQNSKFLELEGICSHLPSIENFKTTQKQIEQFLFFLETLKQKNIHPKFVHISNSGHIINYKLNPQFNMVRPGLILYGYCQSEGHHHHHH”, the “soluble on expression in E. coli” value is reported as “not soluble”.
For “MAHHHHHHMSCLNVQPVQLPITNKFRNLPAGKPSHRHESTFCRFFSDTTEKECKGSRRNINHRNKSSIFDNVEENDIIDNTKINQYNNVKKRFVSNNSLEFKKTFQKNINYVPNEKYGKKNIPDVRNLYIFSRQELNSDTKERKSSKKISNYSLEKNPNKWGVDVLKYNLPSPKKIYRHVDNLTTCLVPKISEDSFIPKKNKKYYVTHLEKSLCPKENILLLNSKKKLIHLHQSKLEMNCVPKDYEQEINKNKPVFLERNLNNNLIPIVECKRRTFHVNDTCKNKQCSINFSCERKPSPFRSGKRIGYIFTRNDNPTFFF”, the “soluble on expression in E. coli” value was “not soluble”.
In the case of “MSSIQGYKMKEYSMPTKRYCQTLSLKNNPILIEEYRKIHSEEKAWPEIRAGIRAVGILEMEIYILGSQLFMIIETPLDFDWEIAMDKLSNLPRQAEWEKYVSKFQDCPYLSSSAEKWKLMERMFYLYED”, the “soluble on expression in E. coli” value is reported as “not soluble”.
For “MGSDKIHHHHHHMTERIRIGISSCLLGNKVRHDGGHKFDSYIVNVLGRYLDFVPVCPEVECGLPTPREPMRLAGDVHSPRLMTSKTWQDKTEQMQTWADSKVRELEGQGLCGFIFKRGSPSSGMERVKVYPFTDPREVKNVGAPVLKGSGLFARTFMEHFPLLPVEEEGRLNDPVLRENFIERLFVVRRWYDLLESGMAPGAVVEFHTRHKLLLLAHSTQKYREMGRLVAAVREYSPEQFRTEYRRLLMEALSVRATAGRHANVQQHIMGYFRRQLTTDEKQELVEIIDRYRNGLVPLIVPVTMLNHYVRKYGDEYLAGQYYLNPHPVELKLRNHI”, the “soluble on expression in E. coli” value was “not soluble”.
With “MPVFKRYMRSPRLKAKHVMSTPPVTIEVGRSIAEAARLMAERGVGSLIVVDKQGLVKGILTERDIINSLASGKACAEGKVEDIMSRNPIVASPDDDLEIIIEKMRDMNIRHIPVIDEDGRPLGMISVRDIIDLGVSALKLFVE” the “soluble on expression in E. coli” value was “soluble”.

Reference: the DeepSol protein solubility set
